Results reported in paper doi:10.1101/758797 (bioRxiv, 2019).

Target: VPS15 (human, UniProt Q99570 1-1358)
Test: cryo-EM structure

Sequence of VPS15 (Q99570 whole entry): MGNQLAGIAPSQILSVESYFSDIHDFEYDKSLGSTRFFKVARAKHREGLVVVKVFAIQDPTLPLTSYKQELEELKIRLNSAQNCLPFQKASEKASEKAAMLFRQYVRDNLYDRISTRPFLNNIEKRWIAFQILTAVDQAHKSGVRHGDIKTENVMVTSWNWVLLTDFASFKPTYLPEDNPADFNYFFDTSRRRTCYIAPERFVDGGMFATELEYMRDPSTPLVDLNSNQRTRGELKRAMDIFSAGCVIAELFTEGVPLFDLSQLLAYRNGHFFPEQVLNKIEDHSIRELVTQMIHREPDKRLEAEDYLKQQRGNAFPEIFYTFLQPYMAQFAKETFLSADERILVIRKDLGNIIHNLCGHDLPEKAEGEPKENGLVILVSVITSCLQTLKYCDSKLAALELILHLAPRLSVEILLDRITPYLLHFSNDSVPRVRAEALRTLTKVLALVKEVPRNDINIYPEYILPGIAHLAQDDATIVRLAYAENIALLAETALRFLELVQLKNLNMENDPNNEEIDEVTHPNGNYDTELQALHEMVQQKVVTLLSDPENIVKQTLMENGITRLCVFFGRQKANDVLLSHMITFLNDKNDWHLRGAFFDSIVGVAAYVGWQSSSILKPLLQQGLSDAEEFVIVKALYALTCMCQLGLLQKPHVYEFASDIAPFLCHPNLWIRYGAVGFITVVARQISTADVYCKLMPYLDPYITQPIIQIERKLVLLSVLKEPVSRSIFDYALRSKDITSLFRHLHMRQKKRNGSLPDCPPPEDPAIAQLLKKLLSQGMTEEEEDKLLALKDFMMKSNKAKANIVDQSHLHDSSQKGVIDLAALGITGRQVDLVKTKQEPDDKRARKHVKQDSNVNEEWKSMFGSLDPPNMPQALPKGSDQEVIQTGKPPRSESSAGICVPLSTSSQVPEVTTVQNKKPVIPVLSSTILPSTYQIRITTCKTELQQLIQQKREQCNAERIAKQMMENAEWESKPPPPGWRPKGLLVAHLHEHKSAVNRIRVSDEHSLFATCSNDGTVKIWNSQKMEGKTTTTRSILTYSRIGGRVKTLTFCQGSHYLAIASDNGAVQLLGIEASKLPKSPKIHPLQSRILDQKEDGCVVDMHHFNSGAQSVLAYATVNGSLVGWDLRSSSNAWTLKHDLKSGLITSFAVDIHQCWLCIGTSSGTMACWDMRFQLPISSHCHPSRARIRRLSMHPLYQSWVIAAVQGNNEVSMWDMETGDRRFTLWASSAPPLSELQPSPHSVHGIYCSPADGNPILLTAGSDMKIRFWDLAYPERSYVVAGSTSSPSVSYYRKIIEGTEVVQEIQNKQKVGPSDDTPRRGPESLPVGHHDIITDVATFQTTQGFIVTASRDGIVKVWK

binding result: binds
B1: NRBF2^MIT as fused in MIT-Fusion (NRBF2 residues 1-159, S113A, S120A) (domain or fragment)
chain: MEVMEGPLNLAHQQSRRADRLLAAGKYEEAISCHKKAAAYLSEAMKLTQSEQAHLSLELQRDSHMKQLLLIQERWKRAQREERLKAQQNTDKDAAAHLQTSHKPSAEDAEGQAPLSQKYAPSTEKCLPEIQGIFDRDPDTLLYLLQQKSEPAEPCIGSK
